# Laboratory results taken from patent US6420338B1, “Inhibition of the Src kinase family pathway as a method of treating HBV infection and hepatocellular carcinoma” (New York University Medical Center, priority 1997, dated 2002).
# B1: Csk: Csk (carboxyl-terminal Src kinase), a specific physiologic inhibitor of Src kinase, expressed from a CMV promoter plasmid (protein, UniProt P41240 2-450, looked up)
# Tyrosine-protein kinase CSK: SAIQAAWPSGTECIAKYNFHGTAEQDLPFCKGDVLTIVAVTKDPNWYKAKNKVGREGIIPANYVQKREGVKAGTKLSLMPWFHGKITREQAERLLYPPETGLFLVRESTNYPGDYTLCVSCDGKVEHYRIMYHASKLSIDEEVYFENLMQLVEHYTSDADGLCTRLIKPKVMEGTVAAQDEFYRSGWALNMKELKLLQTIGKGEFGDVMLGDYRGNKVAVKCIKNDATAQAFLAEASVMTQLRHSNLVQLLGVIVEEKGGLYIVTEYMAKGSLVDYLRSRGRSVLGGDCLLKFSLDVCEAMEYLEGNNFVHRDLAARNVLVSEDNVAKVSDFGLTKEASSTQDTGKLPVKWTAPEALREKKFSTKSDVWSFGILLWEIYSFGRVPYPRIPLKDVVPRVEKGYKMDAPDGCPPAVYEVMKNCWHLDAAMRPSFLQLREQLEHIKTHELHL
# What was measured:
# N-Myc = N-Myc immunoblot of nuclear extracts of Chang cells expressing HBx; type: cell-based; settings: Chang cells co-expressing HBx; serum-starved 20 hours
# Experimental: Cells were lysed in 1% Triton, 20 mM Hepes pH 7.4, 150 mM NaCl, 10% Glycerol, 1 mM Na3VO4, 50 mM NaF, 1 mM PMSF, 10 μg/ml aprotinin, and 10 μg/ml leupeptin. Equal amounts of protein were immunoprecipitated on ice for 2 hours and the immune complexes were collected by incubation with protein A-agarose (Santa Cruz) for 60 minutes at 4° C. Immunoprecipitates were washed three times with HNTG (20 mM Hepes pH 7.4, 150 mM NaCl, 0.1% Triton, and 10% Glycerol), resuspended in Laemmli sample buffer, heated to 95° C. for 10 minutes, resolved by electrophoresis on SDS-polyacrylamide gels, and immunoblotted to nitrocellulose using standard techniques (Harlow and Lane, 1988, Antibodies: A Laboratory Manual (Cold Spring Harbor, N.Y.; CSH Laboratory Press)). Immunoblots were visualized using the ECL chemiluminescence system (Amersham).
# Nuclear extracts were prepared according to a modified Dignam protocol (Su and Schneider, 1996). Cell pellets were resuspended in 250 μl of cold Buffer A (10 mM Hepes pH 7.9, 1.5 mM MgCl2, 10 mM KCl, 0.5 mM DTT, 1 mM PMSF, 10 μg/ml leupeptin and 10 μg/ml aprotinin), swollen on ice for 10 min, vortexed for 10 sec, and centrifuged for 10 sec at 12,000×g. […]
# AP-1 = AP-1 electrophoretic mobility shift assay (EMSA) on nuclear extracts of Chang cells expressing HBx; type: cell-based; settings: cotransfection of increasing amounts of plasmid
# Experimental: FIGS. 3A and 3B. Transcriptional activation of AP-1 by HBx involves activation of Src kinases. Chang cells transfected with 8 μg plasmids pCMV-X or pCMV-Xo, with or without cotransfection of pCsk for 18 h, then serum starved for 18 h. (FIG. 3A) Cell extracts were prepared for AP-1 EMSA as described (Benn et al., 1996, supra) using a ^32P-labeled dsDNA oligonucleotide probe containing one AP-1 binding site. Reactions were carried out using 3 μg of nuclear extract, labeled oligonuleotide and 1 μg of poly(dI-dC) for 30 min at 23° C. Protein-DNA complexes were resolved by electrophoresis on 4% polyacrylamide gels and visualized by PhosphorImage analysis. As a positive control for AP-1 stimulation, cells were treated with 20 μM TPA for 30 min. (FIG. 3B) Cells were transfected as above but contained in addition 3 μg of plasmid pAP-1LUC, which encodes the luciferase reporter under the control of four AP-1 binding sites and a minimal TATA box promoter. Serum starved cells were harvested 18 h after transfection and the level of expression of the luciferase reporter assayed. Results are the average of three independent experiments.
# Nuclear extracts were prepared according to a modified Dignam protocol (Su and Schneider, 1996). […]
molecule,measurement,setting,value
B1,effect on increase in N-Myc protein by HBx,N-Myc,impaired
same,effect on HBx induction of AP-1 DNA binding complexes,AP-1,suppressed
